Legend:
recombinant human TfR1 = molecular target: T1, recombinant human TfR1 (human, UniProt P02786 89-760); assay: ELISA, conjugate against unconjugated antibody
T1 construct: Recombinant huTfR1 coated on ELISA plates or used in the immunoprecipitation; also called huTfR1; hTfR1

recombinant cyno TfR1 = molecular target: T2, recombinant cyno TfR1 (cynomolgus monkey (Macaca fascicularis), UniProt Q5RDH6 87-760 (Pongo abelii entry), limits assumed); assay: ELISA, conjugate against unconjugated antibody
T2 construct: Recombinant cynoTfR1 coated on ELISA plates; also called cTfR1; cynomolgus monkey TfR1
T2 chain: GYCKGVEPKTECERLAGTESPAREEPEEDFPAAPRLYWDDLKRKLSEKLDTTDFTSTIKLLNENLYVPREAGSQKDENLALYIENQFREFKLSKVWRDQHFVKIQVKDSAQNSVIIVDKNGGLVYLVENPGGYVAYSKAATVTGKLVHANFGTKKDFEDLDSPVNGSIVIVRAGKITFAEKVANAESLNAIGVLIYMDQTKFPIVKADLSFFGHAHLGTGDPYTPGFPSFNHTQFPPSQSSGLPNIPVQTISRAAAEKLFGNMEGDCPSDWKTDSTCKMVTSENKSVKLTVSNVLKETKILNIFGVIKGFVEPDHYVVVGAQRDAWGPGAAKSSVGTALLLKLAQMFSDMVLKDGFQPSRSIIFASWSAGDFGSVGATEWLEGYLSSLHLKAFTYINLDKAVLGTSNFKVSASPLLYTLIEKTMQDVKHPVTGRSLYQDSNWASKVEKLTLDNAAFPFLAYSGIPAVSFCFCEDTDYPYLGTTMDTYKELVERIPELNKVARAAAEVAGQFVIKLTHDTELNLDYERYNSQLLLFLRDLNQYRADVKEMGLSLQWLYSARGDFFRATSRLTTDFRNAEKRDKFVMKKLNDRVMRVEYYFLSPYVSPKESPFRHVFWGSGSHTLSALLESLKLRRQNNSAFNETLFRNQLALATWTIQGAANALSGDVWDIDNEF

fold increase of binding upon conjugation (against unconjugated anti-TfR) (recombinant human TfR1): 3 to 6 fold | fold increase of binding upon conjugation (against unconjugated anti-TfR) (recombinant cyno TfR1): 3 to 6 fold
B1: anti-TfR (VH of SEQ ID NO: 17 and VL of SEQ ID NO: 18) conjugated to a DMPK-targeting oligonucleotide (control DMPK-ASO) (antibody, V domains shown)
VH: QVQLVQSGAEVKKPGESLKISCKGSGYSFTSYWIGWVRQMPGKGLEWMGIIYPGDSDTRYSPSFQGQVTISADKSISTAYLQWSSLKASDTAMYYCARFPYDSSGYYSFDYWGQGTLVTVSS
VL: not shown
modifications: DMPK-targeting antisense oligonucleotide linked through a cathepsin-cleavable Val-Cit linker to the ε-amine of lysine of the antibody (site and chain not stated)
notes: In the uptake assay several different DMPK-targeting oligonucleotides were used and the conjugates were also labeled with Cypher5e; also called anti-TfR in conjugates with a DMPK targeting oligo; oligonucleotide-conjugated anti-TfR

Reference: patent US20230103793A1 (DYNE THERAPEUTICS, published 2023)
